Experimental data reported in publication PMC11979002.

Target: HLA-DQ2.2 (DQA1*02:01/DQB1*02:02) with the covalently linked glutL1 peptide
Test: SPR; Biacore T200; biotinylated HLA-DQ2 molecules immobilised on a streptavidin chip (about 3000 RU), biotinylated HLA-DQ8glia-α1 in the reference cell; serial dilutions of TCR flowed at 10 μl/min in 20 mM HEPES pH 7.5, 150 mM NaCl, 1 mM EDTA, 0.005% TWEEN 20; steady-state KD, 1:1 (single ligand) binding model

Row | Kd [µM] | Substance
1 | 10.2 | G9 TCR, β-chain R75A
2 | 7.8 | G9 TCR, β-chain S58A
